From patent publication KR20200059381A

Columns and labels:
[1] = target: 구제역 바이러스 혈청형 O 배양액(cal1~cal4) (Foot-and-mouth disease virus serotype O); assay: sandwich ELISA, cal2, 1E58 coat 4 ug/ml, 1E58-HRP 0.6 ug/ml, 450 nm
[2] = target: 구제역 바이러스 혈청형 O 배양액(cal1~cal4) (Foot-and-mouth disease virus serotype O); assay: sandwich ELISA, cal2, 1E58 coat 1 ug/ml, 1E58-HRP 0.2 ug/ml, 450 nm
[3] = target: 구제역 바이러스 혈청형 O 배양액(cal1~cal4) (Foot-and-mouth disease virus serotype O); assay: sandwich ELISA, cal4, 1E58 coat 2 ug/ml, 1E58-HRP 0.8 ug/ml, 450 nm
[4] = target: 구제역 바이러스 혈청형 O 배양액(cal1~cal4) (Foot-and-mouth disease virus serotype O); assay: sandwich ELISA, cal4, 1E58 coat 8 ug/ml, 1E58-HRP 0.8 ug/ml, 450 nm
[5] = target: 구제역 바이러스 혈청형 O 배양액(cal1~cal4) (Foot-and-mouth disease virus serotype O); assay: sandwich ELISA, cal1, 1E58 coat 4 ug/ml, 1E58-HRP 0.8 ug/ml, 450 nm
[6] = target: 구제역 바이러스 혈청형 O 배양액(cal1~cal4) (Foot-and-mouth disease virus serotype O); assay: sandwich ELISA, cal4, 1E58 coat 2 ug/ml, 1E58-HRP 0.6 ug/ml, 450 nm
[7] = target: 구제역 바이러스 혈청형 O 배양액(cal1~cal4) (Foot-and-mouth disease virus serotype O); assay: sandwich ELISA, cal4, 1E58 coat 8 ug/ml, 1E58-HRP 0.2 ug/ml, 450 nm
[8] = target: 구제역 바이러스 혈청형 O 배양액(cal1~cal4) (Foot-and-mouth disease virus serotype O); assay: sandwich ELISA, cal2, 1E58 coat 1 ug/ml, 1E58-HRP 0.4 ug/ml, 450 nm
[9] = target: 구제역 바이러스 혈청형 O 배양액(cal1~cal4) (Foot-and-mouth disease virus serotype O); assay: sandwich ELISA, cal2, 1E58 coat 8 ug/ml, 1E58-HRP 0.6 ug/ml, 450 nm
[10] = target: 구제역 바이러스 혈청형 O 배양액(cal1~cal4) (Foot-and-mouth disease virus serotype O); assay: sandwich ELISA, cal2, 1E58 coat 2 ug/ml, 1E58-HRP 0.8 ug/ml, 450 nm
[11] = target: 구제역 바이러스 혈청형 O 배양액(cal1~cal4) (Foot-and-mouth disease virus serotype O); assay: sandwich ELISA, cal3, 1E58 coat 8 ug/ml, 1E58-HRP 0.4 ug/ml, 450 nm
[12] = target: 구제역 바이러스 혈청형 O 배양액(cal1~cal4) (Foot-and-mouth disease virus serotype O); assay: sandwich ELISA, cal1, 1E58 coat 1 ug/ml, 1E58-HRP 0.2 ug/ml, 450 nm
[13] = target: 구제역 바이러스 혈청형 O 배양액(cal1~cal4) (Foot-and-mouth disease virus serotype O); assay: sandwich ELISA, cal3, 1E58 coat 1 ug/ml, 1E58-HRP 0.8 ug/ml, 450 nm
[14] = target: 불활화 FMDV 혈청형 A (Foot-and-mouth disease virus serotype A)
[15] = target: 불활화 FMDV 혈청형 O (Foot-and-mouth disease virus serotype O)
[16] = target: 불활화 FMDV 혈청형 Asia1 (Foot-and-mouth disease virus serotype Asia1)
[17] = target: 구제역 바이러스 혈청형 O 배양액(cal1~cal4) (Foot-and-mouth disease virus serotype O); assay: sandwich ELISA, cal1, 1E58 coat 2 ug/ml, 1E58-HRP 0.4 ug/ml, 450 nm
[18] = target: 구제역 바이러스 혈청형 O 배양액(cal1~cal4) (Foot-and-mouth disease virus serotype O); assay: sandwich ELISA, cal4, 1E58 coat 2 ug/ml, 1E58-HRP 0.4 ug/ml, 450 nm
[19] = target: 구제역 바이러스 혈청형 O 배양액(cal1~cal4) (Foot-and-mouth disease virus serotype O); assay: sandwich ELISA, cal4, 1E58 coat 1 ug/ml, 1E58-HRP 0.4 ug/ml, 450 nm
[20] = target: 구제역 바이러스 혈청형 O 배양액(cal1~cal4) (Foot-and-mouth disease virus serotype O); assay: sandwich ELISA, cal1, 1E58 coat 1 ug/ml, 1E58-HRP 0.8 ug/ml, 450 nm
[21] = target: 구제역 바이러스 혈청형 O 배양액(cal1~cal4) (Foot-and-mouth disease virus serotype O); assay: sandwich ELISA, cal4, 1E58 coat 4 ug/ml, 1E58-HRP 0.4 ug/ml, 450 nm
[22] = target: 구제역 바이러스 혈청형 O 배양액(cal1~cal4) (Foot-and-mouth disease virus serotype O); assay: sandwich ELISA, cal2, 1E58 coat 2 ug/ml, 1E58-HRP 0.2 ug/ml, 450 nm
[23] = target: 구제역 바이러스 혈청형 O 배양액(cal1~cal4) (Foot-and-mouth disease virus serotype O); assay: sandwich ELISA, cal3, 1E58 coat 2 ug/ml, 1E58-HRP 0.2 ug/ml, 450 nm
[24] = target: 구제역 바이러스 혈청형 O 배양액(cal1~cal4) (Foot-and-mouth disease virus serotype O); assay: sandwich ELISA, cal2, 1E58 coat 4 ug/ml, 1E58-HRP 0.4 ug/ml, 450 nm
[25] = target: 구제역 바이러스 혈청형 O 배양액(cal1~cal4) (Foot-and-mouth disease virus serotype O); assay: sandwich ELISA, cal4, 1E58 coat 1 ug/ml, 1E58-HRP 0.6 ug/ml, 450 nm
[26] = target: 구제역 바이러스 혈청형 O 배양액(cal1~cal4) (Foot-and-mouth disease virus serotype O); assay: sandwich ELISA, cal3, 1E58 coat 1 ug/ml, 1E58-HRP 0.2 ug/ml, 450 nm
[27] = target: 구제역 바이러스 혈청형 O 배양액(cal1~cal4) (Foot-and-mouth disease virus serotype O); assay: sandwich ELISA, cal1, 1E58 coat 8 ug/ml, 1E58-HRP 0.2 ug/ml, 450 nm
[28] = target: 구제역 바이러스 혈청형 O 배양액(cal1~cal4) (Foot-and-mouth disease virus serotype O); assay: sandwich ELISA, cal4, 1E58 coat 4 ug/ml, 1E58-HRP 0.6 ug/ml, 450 nm
[29] = target: 구제역 바이러스 혈청형 O 배양액(cal1~cal4) (Foot-and-mouth disease virus serotype O); assay: sandwich ELISA, cal2, 1E58 coat 1 ug/ml, 1E58-HRP 0.8 ug/ml, 450 nm

B1: 단클론항체 1E58 (antibody, V domains shown)
VH: EFQLQQSRPELAKPGASVKISCKTSGHTFTTYTMHWVKQSHVKSLEWIGCFNPNNGGATYNQKFKGKATLTMDKSSNTAYVEVRSLTSDDSAVYYCAYGNYVNFDYWGQGTTLTVSS
VL: DIVLTQSPASLAVSLGQRATISYRASKSVSTSGYSYMHWNQQKPGQPPRLLIYLVSNLESGVPARFSGSGSGTDFTLNIHPVEEEDAATYYCQHIRELTRSEGGPSWKN
B1 was tested, and the O.D [1] was 3.47 O.D, the O.D [2] was 1.06 O.D and the O.D [3] was 1.05 O.D. For the same binder, the O.D [4] was 0.59 O.D, the O.D [5] was 4 O.D and the O.D [6] was 0.87 O.D. It also gave an O.D [7] of 0.27 O.D, an O.D [8] of 1.4 O.D and an O.D [9] of 1.84 O.D. The O.D [10] was 3.67 O.D, the O.D [11] was 0.96 O.D and the O.D [12] was 1.81 O.D. For the same binder, the O.D [13] was 1.17 O.D, the ELISA screening plate (O.D) [14] was 2.13 O.D and the ELISA screening plate (O.D) [15] was 2.02 O.D. It also gave an ELISA screening plate (O.D) [16] of 1.93 O.D, an O.D [17] of 3.87 O.D and an O.D [18] of 0.56 O.D. For the same binder, the O.D [19] was 0.65 O.D, the O.D [20] was 3.21 O.D and the O.D [21] was 0.88 O.D. It also gave an O.D [22] of 1.8 O.D, an O.D [23] of 0.98 O.D and an O.D [24] of 3.08 O.D. The O.D [25] was 0.74 O.D, the O.D [26] was 0.54 O.D and the O.D [27] was 2.35 O.D. It also gave an O.D [28] of 1.11 O.D and an O.D [29] of 1.97 O.D.
